Experimental data: the DeepSol protein solubility set

Assay: soluble on expression in E. coli; label from the status in PepcDB or PDB records

Sequence | soluble on expression in E. coli
MSLAKVLVIDEDRSTLARLELLLTKDGYETVTASTGTDGLNRYVERYPDLVILDVFLSDVGGFTVLEELLEENEQAMVILMTAQLDMETAIRAMKLGAFDYVPKTADMAELLSVVHKASNTLETDRQQGGLSGEAFRNYKAGDIIGAGREMREIFKMVGVLSRSRATVLIEGESGTGKELVAKVIHKHTSSNEPFIAVNCSAIVETLLESELFGHEKGSFTSAFNRQLGKFELGRYGTVFLDEISEMSINLQAKLLRVLQEMEFERVGGKDKIQVHARIITATNKNLRTLVREGKFRADLYYRLNIVSLKIPPLRERQEDIPLLVNHLIAKIGRDLSRRISGVSEEVMEAFLRYTWPGNVRELENLLVRAGVMAKGRILDKSDFPELFKESGEGHHHHHH | not soluble
MGSDKIHHHHHHMKILWITSVYPSSMKPGEGVFHETQVQELQKLGLDITVICPRPFHSAPVRMLKKTYRKKDVRPEYEIRKGIPVYRPFYRAVPGQLKWAQPHRRIASAVLKTMKQRDLYPDLIHAHFAMPSGGAAAVVSESAQIPYVLTLHGSDVNVYPHYSKGAFKAFKRAVGSASVVLAVSHKLQEEAKKLSGFDSSVLPIGIQLSRFQGNEETKEEIRKRLGLPLDQRLAVYVGRLVREKGIFELSEAIESLQDSPKAVFVGDGPAKSTLTQKGHIVTGQVPNHQVRDYLLAADLFVLPSYSEGMPTVVIEALALRVPVICTDVGGVSSLFGKHQHLLIKPKSAQALAEAITRYEHEQIWKPEVADDLYETVQAQFDAGKNAKALHHQYQTVTKTSV | not soluble
SLTTQRLGLIMNGVTGRMGLNQHLIRSIVAIRDQGGVRLKNGDRIMPDPILVGRSAEKVEALAKRFNIARWTTDLDAALADKNDTMFFDAATTQARPGLLTQAINAGKHVYCEKPIATNFEEALEVVKLANSKGVKHGTVQDKLFLPGLKKIAFLRDSGFFGRILSVRGEFGYWVFEGGWQEAQRPSWNYRDEDGGGIILDMVCHWRYVLDNLFGNVQSVVCIGNTDIPERFDEQGKKYKATADDSAYATFQLEGGVIAHINMSWVTRVYRDDLVTFQVDGTHGSAVAGLSDCMIQARQATPRPVWNPDEKRLHDFYGDWQKLPDNVSYDNGFKEQWEMFIRHVYEDAPYKFTLLEGAKGVQLAECALKSWKERRWIDVAPIK | soluble
MPRAVAERGDVVPVLAEVFRSHGFDGASLAVITEHTGLGKGSLYNFFPRGKDEMAEAVLDEVDAWFQTAVYLPLRGSEPAAARLERMFDEVETYFRSGRRICLFGAFALGLERDRFADRVRAYFTDWVDSLAGALADAGHGRPSRPLAEEVVAGIQGALVLARALDDPDSFTRILTRLRRSVGDPTTSRA | soluble
MGSDKIHHHHHHMYRKDLDHYLKQRLPKAVFLYGEFDFFIHYYIQTISALFKCDNPDIETSLFYASDYEKSQIATLLEQDSLFGGSSLVVLKLDFALHKKFKENDINLFLKALERPSHNRLIIGLYNAKSDTTKYKYTSDAIVKFFQKSPLKDEAICARFFIPKTWESLKFLQERANFLHLDISGHLLNALFEINNEDLGVSFNDLDKLAVLNAPITLEDIQELSSNAGDMDLQKLILGLFLKKSALDIYDYLLKEGKKDADILRGLERYFYQLFLFFAHIKTTGLMDAKEVLGYAPPKEIAENYAKNALRLKEAGYKRVFEIFRLWHIQSMQGQKELGFLYLTSIQKIINP | not soluble
MGSDKIHHHHHHMHKHADFFSYLSDHFQHTYWVPGNHEWYNSDMADRSGMLHEKIKDNVSLVNNAAVEQDGVQLIFSTLWSQISPAFAFQISQGMSDFHVIKYKGKPFSVEQFNRQHEESVSFIQKALQQKYAATTVVVSHHIPTFQHYPQQYKGSVLSEAFATELYDLIEAASPDYWIYGHHHSNVPDFTIGNTQLLTNQLGYVKCGEHAGFDRGKCLFRRGGH | not soluble
MFLRIDRLQIELPMPKEQDPNAAAAVQALLGGRFGEMSTLMNYMYQSFNFRGKKALKPYYDLIANIATEELGHIELVAATINSLLAKNPGKDLEEGVDPESAPLGFAKDVRNAAHFIAGGANSLVMGAMGEHWNGEYVFTSGNLILDLLHNFFLEVAARTHKLRVYEMTDNPVAREMIGYLLVRGGVHAAAYGKALESLTGVEMTKMLPIPKIDNSKIPEAKKYMDLGFHRNLYRFSPEDYRDLGLIWKGASPEDGTEVVVVDGPPTGGPVFDAGHDAAEFAPEFHPGELYEIAKKLYEKAK | soluble
AHHHHHHGSLKLSDFIPLTMLREGETGVVVDIQSGVNARGKLLSMGITPGVRVRMIKSRKPGPVIIGIGSSKIALGWGIASKIIVRRE | not soluble
